# Assay results reported in patent US20210221899A1 (published 2021).
# Numbering of substitutions follows the chain as printed.
# B1: can9L12VH_E99A (antibody, V domains shown)
# VH: EVQLVESGGDLVKPGGSLRLSCVASGFTFSSHGMHWVRQSPGKGLQWVAVINSGGSSTYYTDAVKGRFTISRDNAKNTVYLQMNSLRAEDTAMYYCAKASVGGWEQLVGPHFDYWGQGTLVIVSS
# VL: QSVLTQPTSVSGSLGQRVTISCSGSTNNIGILGASWYQLFPGKAPKLLVYGNGNRPSGVPDRFSGADSGDSVTLTITGLQAEDEADYYCQSFDTTLGAHVFGGGTHLTVL
# B2: can9L12VH_G26A (antibody, V domains shown)
# VH: B1 VH with G26A, A99E
# VL: B1 VL
# B3: can9L12VH_F27A (antibody, V domains shown)
# VH: B1 VH with F27A, A99E
# VL: B1 VL
# B4: can9L12VH_G33A (antibody, V domains shown)
# VH: B1 VH with G33A, A99E
# VL: B1 VL
# B5: can9L12VH_E105A (antibody, V domains shown)
# VH: B1 VH with A99E, E105A
# VL: B1 VL
# B6: can9L12VH_G55A (antibody, V domains shown)
# VH: B1 VH with G55A, A99E
# VL: B1 VL
# B7: can9L12VH_G102A (antibody, V domains shown)
# VH: B1 VH with A99E, G102A
# VL: B1 VL
# B8: can9L12VH_F112A (antibody, V domains shown)
# VH: B1 VH with A99E, F112A
# VL: B1 VL
# B9: can9L12VH_F29A (antibody, V domains shown)
# VH: B1 VH with F29A, A99E
# VL: B1 VL
# B10: can9L12VH_G103A (antibody, V domains shown)
# VH: B1 VH with A99E, G103A
# VL: B1 VL
# B11: can9L12VH_G54A (antibody, V domains shown)
# VH: B1 VH with G54A, A99E
# VL: B1 VL
# Target: T1, rat NGF (rat, UniProt P25427 122-241)
# T1 construct: also called rN
# Test: SPR (Biacore T200), 100 nM mAb on NGF chip, similarity to parent mAb
# Source text: (§1) The region of an antibody responsible for antigen recognition represents the paratope. A paratope is created by a combination of amino acids in the complementarity determining regions (CDRs) of both the heavy and light chain variable regions. The binding between antibody and antigen is often mediated by side chains of CDR residues with side chains or carbohydrate moieties of the antigen. To help define critical side chains involved in antibody recognition alanine scanning mutagenesis was performed on each CDR residue in both the heavy and light chain, the technique as described by Cunningham and Wells (1989) Science, Vol. 244, Issue 4908, pp. 1081-1085. These mutants were then individually tested for the ability to NGF using the Biacore. […] Values were then compared to the wild type antibodies and are represented in the tables as a percent of wild type binding. The data presented in Tables 4 and 5 below are shown as a “percent similarity score” compared to wild type.
# (§2) The mean response unit of four replicates of the parent mAb+/−3 standard deviations was used to generate parameters to define a threshold of response units comprising both the on- and off-rates antibody binding. The percentage of data points for each mutant fell within this threshold was then used to define a “% similarity score”. […] Results from substitution of alanine at each CDR position
# T1 sequence (P25427 122-241 limits assumed): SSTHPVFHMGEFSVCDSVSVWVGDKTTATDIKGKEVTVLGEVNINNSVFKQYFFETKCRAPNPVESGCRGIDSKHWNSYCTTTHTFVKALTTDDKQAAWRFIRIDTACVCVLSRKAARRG
row,Binder,Percent Similarity Score (KD on rN) [%]
1,B1,80.5
2,B2,94.8
3,B3,100
4,B4,99.9
5,B5,100
6,B6,99.3
7,B7,4.7
8,B8,11.8
9,B9,99.9
10,B10,62.5
11,B11,93.8

# Target: T2, canine NGF (canine, UniProt Q29074 110-229 (pig entry), limits assumed)
# T2 construct: The protein was secreted from CHO cells and purified; also called cNGF; canine β-NGF
# T2 chain: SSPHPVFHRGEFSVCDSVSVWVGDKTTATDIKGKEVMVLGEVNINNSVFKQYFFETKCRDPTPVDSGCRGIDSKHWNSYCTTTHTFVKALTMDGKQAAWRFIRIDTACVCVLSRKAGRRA
# Test: as above
# Source text: as §1, §2
row,Binder,Percent Similarity Score (KD on cN) [%]
1,B1,97.7
2,B2,100
3,B3,100
4,B4,100
5,B5,100
6,B6,100
7,B7,11
8,B8,28.3
9,B9,100
10,B10,99.8
11,B11,100

# Target: T3, human NGF (human, UniProt P01138 122-241)
# T3 construct: also called human Nerve Growth Factor; hN
# T3 chain: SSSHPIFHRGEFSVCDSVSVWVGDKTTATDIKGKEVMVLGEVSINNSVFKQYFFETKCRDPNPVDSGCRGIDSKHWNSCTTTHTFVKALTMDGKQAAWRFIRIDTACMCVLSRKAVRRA
# Test: as above
# Source text: as §1, §2
row,Binder,Percent Similarity Score (KD on hN) [%]
1,B1,82
2,B2,97.4
3,B3,100
4,B4,100
5,B5,98.4
6,B6,100
7,B7,3.4
8,B8,8
9,B9,100
10,B10,38.2
11,B11,96.2
